Paper PMC10397247
Values belong to the binder of their own block, whether it stands above or below them.

What was measured:
Assay in all cases: two-hybrid library CCNG1;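 also: natural log of median RNA to DNA barcode read ratio; higher means stronger binding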
4H2618-bH = biological target: T1, 4H2618-bH
T1 chain: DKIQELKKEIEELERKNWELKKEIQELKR

4H3855-bH = biological target: T2, 4H3855-bH
T2 chain: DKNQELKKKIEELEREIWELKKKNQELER

4H953-bH = biological target: T3, 4H953-bH
T3 chain: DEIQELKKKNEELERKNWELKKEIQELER

4H3185-bH = biological target: T4, 4H3185-bH
T4 chain: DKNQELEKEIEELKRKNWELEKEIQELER

4H607-bH = biological target: T5, 4H607-bH
T5 chain: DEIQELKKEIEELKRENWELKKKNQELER

4H754-bH = biological target: T6, 4H754-bH
T6 chain: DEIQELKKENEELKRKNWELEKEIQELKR

4H883-bH = biological target: T7, 4H883-bH
T7 chain: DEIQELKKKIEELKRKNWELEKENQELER

4H3297-bN = biological target: T8, 4H3297-bN
T8 chain: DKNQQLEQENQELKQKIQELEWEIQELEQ

4H3782-bH = biological target: T9, 4H3782-bH
T9 chain: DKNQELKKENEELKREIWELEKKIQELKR

4H2729-bH = biological target: T10, 4H2729-bH
T10 chain: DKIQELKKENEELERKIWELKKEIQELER

4H1828-bH = biological target: T11, 4H1828-bH
T11 chain: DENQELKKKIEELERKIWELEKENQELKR

4H338-bH = biological target: T12, 4H338-bH
T12 chain: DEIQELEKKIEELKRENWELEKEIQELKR

4H967-bH = biological target: T13, 4H967-bH
T13 chain: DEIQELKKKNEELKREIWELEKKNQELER

4H797-bH = biological target: T14, 4H797-bH
T14 chain: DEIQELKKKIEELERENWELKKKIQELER

4H454-bH = biological target: T15, 4H454-bH
T15 chain: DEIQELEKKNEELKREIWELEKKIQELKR

4H687-bH = biological target: T16, 4H687-bH
T16 chain: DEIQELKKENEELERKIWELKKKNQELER

4H72-bH = biological target: T17, 4H72-bH
T17 chain: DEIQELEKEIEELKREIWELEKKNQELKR

4H2576-bH = biological target: T18, 4H2576-bH
T18 chain: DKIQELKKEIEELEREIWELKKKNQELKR

4H331-bH = biological target: T19, 4H331-bH
T19 chain: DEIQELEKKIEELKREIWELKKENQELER

4H568-bH = biological target: T20, 4H568-bH
T20 chain: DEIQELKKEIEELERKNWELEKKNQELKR

4H908-bH = biological target: T21, 4H908-bH
T21 chain: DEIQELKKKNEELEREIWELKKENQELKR

4H2667-bH = biological target: T22, 4H2667-bH
T22 chain: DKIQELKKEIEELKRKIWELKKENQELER

4H4001-bH = biological target: T23, 4H4001-bH
T23 chain: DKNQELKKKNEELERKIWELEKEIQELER

4H1845-bH = biological target: T24, 4H1845-bH
T24 chain: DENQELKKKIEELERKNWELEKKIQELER

4H3112-bH = biological target: T25, 4H3112-bH
T25 chain: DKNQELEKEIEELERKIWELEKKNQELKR

4H3354-bH = biological target: T26, 4H3354-bH
T26 chain: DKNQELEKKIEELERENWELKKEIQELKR

4H717-bH = biological target: T27, 4H717-bH
T27 chain: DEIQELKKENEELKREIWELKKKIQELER

4H918-bH = biological target: T28, 4H918-bH
T28 chain: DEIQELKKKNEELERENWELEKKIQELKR

4H3427-bH = biological target: T29, 4H3427-bH
T29 chain: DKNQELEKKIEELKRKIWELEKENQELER

4H2442-bH = biological target: T30, 4H2442-bH
T30 chain: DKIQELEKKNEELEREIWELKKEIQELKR

4H2673-bA = biological target: T31, 4H2673-bA
T31 chain: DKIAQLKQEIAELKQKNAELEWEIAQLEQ

4H491-bA = biological target: T32, 4H491-bA
T32 chain: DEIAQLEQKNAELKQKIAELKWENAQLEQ

4H2883-bA = biological target: T33, 4H2883-bA
T33 chain: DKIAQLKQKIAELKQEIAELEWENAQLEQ

4H48-bA = biological target: T34, 4H48-bA
T34 chain: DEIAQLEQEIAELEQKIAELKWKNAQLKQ

4H2937-bA = biological target: T35, 4H2937-bA
T35 chain: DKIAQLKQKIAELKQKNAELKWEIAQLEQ

4H2944-bA = biological target: T36, 4H2944-bA
T36 chain: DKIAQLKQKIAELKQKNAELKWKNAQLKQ

4H342-bA = biological target: T37, 4H342-bA
T37 chain: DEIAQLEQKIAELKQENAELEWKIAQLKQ

4H491-bN = biological target: T38, 4H491-bN
T38 chain: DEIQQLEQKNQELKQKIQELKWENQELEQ

4H2937-bN = biological target: T39, 4H2937-bN
T39 chain: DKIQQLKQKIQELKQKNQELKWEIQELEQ

4H2883-bN = biological target: T40, 4H2883-bN
T40 chain: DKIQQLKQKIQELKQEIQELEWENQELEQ

4H2944-bN = biological target: T41, 4H2944-bN
T41 chain: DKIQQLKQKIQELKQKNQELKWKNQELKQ

4H48-bN = biological target: T42, 4H48-bN
T42 chain: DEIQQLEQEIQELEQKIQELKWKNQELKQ

4H342-bN = biological target: T43, 4H342-bN
T43 chain: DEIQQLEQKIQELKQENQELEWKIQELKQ

4H3606-bH = biological target: T44, 4H3606-bH
T44 chain: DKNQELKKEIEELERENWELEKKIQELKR

4H3843-bH = biological target: T45, 4H3843-bH
T45 chain: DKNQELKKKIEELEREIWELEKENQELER

4H3189-bH = biological target: T46, 4H3189-bH
T46 chain: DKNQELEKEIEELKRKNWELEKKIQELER

4H1446-bH = biological target: T47, 4H1446-bH
T47 chain: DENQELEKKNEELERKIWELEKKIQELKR

4H4001-bA = biological target: T48, 4H4001-bA
T48 chain: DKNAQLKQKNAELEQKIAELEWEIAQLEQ

4H607-bA = biological target: T49, 4H607-bA
T49 chain: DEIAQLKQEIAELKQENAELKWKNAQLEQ

4H462-bH = biological target: T50, 4H462-bH
T50 chain: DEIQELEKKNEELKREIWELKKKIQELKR

4H370-bH = biological target: T51, 4H370-bH
T51 chain: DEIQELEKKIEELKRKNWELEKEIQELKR

4H949-bA = biological target: T52, 4H949-bA
T52 chain: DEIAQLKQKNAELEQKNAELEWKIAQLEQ

4H2610-bH = biological target: T53, 4H2610-bH
T53 chain: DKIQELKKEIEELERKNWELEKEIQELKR

4H2697-bH = biological target: T54, 4H2697-bH
T54 chain: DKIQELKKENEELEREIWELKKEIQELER

Binder: DENQELKKKIEELERKIWELEKENQELKR [4H1828-bH]
interaction score (4H2618-bH): 0.369
interaction score (4H3855-bH): 0.0964
interaction score (4H953-bH): -0.675
interaction score (4H3185-bH): -0.478
interaction score (4H607-bH): -2.38
interaction score (4H754-bH): 0.147
interaction score (4H883-bH): 0.204
interaction score (4H3297-bN): -1.01
interaction score (4H3782-bH): 0.484
interaction score (4H2729-bH): -0.147
interaction score (4H1828-bH): 0.57
interaction score (4H338-bH): 1.16
interaction score (4H967-bH): -0.867
interaction score (4H797-bH): 0.474
interaction score (4H454-bH): 0.741
interaction score (4H687-bH): -0.438
interaction score (4H72-bH): 0.102
interaction score (4H2576-bH): -1.69
interaction score (4H331-bH): -0.37
interaction score (4H568-bH): -1.34
interaction score (4H908-bH): -0.285
interaction score (4H2667-bH): 1.08
interaction score (4H4001-bH): 0.309
interaction score (4H1845-bH): -0.21
interaction score (4H3112-bH): 0.767
interaction score (4H3354-bH): 0.672
interaction score (4H717-bH): 0.163
interaction score (4H918-bH): 0.157
interaction score (4H3427-bH): 0.362
interaction score (4H2442-bH): 0.0564
interaction score (4H2673-bA): -3.95

Binder: DKIAQLKQKIAELKQEIAELEWENAQLEQ [4H2883-bA]
interaction score (4H491-bA): -0.886
interaction score (4H2883-bA): 0.521
interaction score (4H48-bA): 1.3
interaction score (4H2937-bA): 0.793
interaction score (4H2944-bA): 1.15
interaction score (4H342-bA): -0.134

The remaining lines, values ahead:

interaction score (4H491-bN): -0.669
interaction score (4H2937-bN): -1.33
interaction score (4H2883-bN): 0.96
interaction score (4H2944-bN): 0.237
interaction score (4H48-bN): 2
interaction score (4H342-bN): -1.84
Binder: DKIQQLKQKIQELKQEIQELEWENQELEQ [4H2883-bN]

interaction score (4H2618-bH): -0.314
interaction score (4H3855-bH): 0.34
interaction score (4H3606-bH): -0.704
interaction score (4H953-bH): -0.325
interaction score (4H3185-bH): 0.0116
interaction score (4H3843-bH): 1.3
interaction score (4H3189-bH): -1.86
interaction score (4H1446-bH): 0.821
interaction score (4H607-bH): -0.622
interaction score (4H754-bH): 0.109
interaction score (4H883-bH): 0.0186
interaction score (4H4001-bA): 2.32
interaction score (4H607-bA): 0.727
interaction score (4H3782-bH): 0.741
interaction score (4H2729-bH): 0.679
interaction score (4H1828-bH): 0.624
interaction score (4H462-bH): 0.0836
interaction score (4H338-bH): 1.17
interaction score (4H967-bH): 0.346
interaction score (4H370-bH): -0.404
interaction score (4H949-bA): -2.01
interaction score (4H797-bH): -0.466
interaction score (4H454-bH): 0.981
interaction score (4H687-bH): 0.347
interaction score (4H72-bH): -0.157
interaction score (4H2576-bH): 0.59
interaction score (4H331-bH): 1.32
interaction score (4H568-bH): -2.02
interaction score (4H2610-bH): 0.669
interaction score (4H908-bH): -0.161
interaction score (4H2667-bH): -0.551
interaction score (4H4001-bH): 1.24
interaction score (4H1845-bH): 0.192
interaction score (4H2697-bH): 1.08
interaction score (4H3112-bH): -0.67
interaction score (4H3354-bH): 0.818
interaction score (4H717-bH): -0.635
interaction score (4H918-bH): -1.41
interaction score (4H3427-bH): 0.933
interaction score (4H2442-bH): 0.731
Binder: DENQELEKKNEELERKIWELEKKIQELKR [4H1446-bH]
